{"source": "a protein production outcome set (Wang et al. 2014)", "assay": "label from the status in PepcDB records"}
{"sequence": "MGLFLEDLAVGDRFDSARHRVEAAAIKAFAGEFDPQPFHLDEEAARHSLFGGLAASGWHTAAITMRLLVTSGLPLAQGIIGAGTELSWPNPTRPGDELHVETTVLAITPSKSRPDRAIVTCQSDTLNQRGEVVQRSTAKVVVFRRPLEHHHHHH", "values": [{"measurement": "protein production", "value": "not failed"}]}
{"sequence": "MGLFQSDKAAEEIDPPQDVTFVNDEAGANSNTTAAKKTESEKSDTAKADQASSTVMRELYLIDKNGYVVAQTLPLPKSESTAKQALEYLVQGGPVSEILPNGFRAVLPADTTVNVDIKKDGTAIADFSNEFKNYKKEDEQKIVQSVTWTLTQFSSIDKVKLRINGHELKEMPVGGTPISDDLSRKDGINLETAGVNDLTATHPLTVYYLAENEDSEYYVPVTKRIDNSEKDDITAAINELAKGPSKVSGLLTDFSEDVKLVSKPKIKDGRVTLDFNQSIFGSADEKTKMISSEVLNSIVLTLTEQPDVKSVSVKVNGKSELVNEKGEKLTEPVSRPSQVNTGSFLEHHHHHH", "values": [{"measurement": "protein production", "value": "not failed"}]}
{"sequence": "MGLGMEIGKLIVAFLVLINPFSALSLYLDLTNGHSTKERRKVARTAAVAVFAVIAVFALIGGALLKVLGISVGSFQVGGGILVLLIAISMMNGNDNPAKQNLGAQPETGQARPARNAGAIAVVPIAIPITIGPGGISTVIIYASAAKTYSDIALIIAAGLVVSAICYAILIVAGKVSRLLGATGLTILNRIMGMMLAAVSVEIIVSGLKTIFPQLAG", "values": [{"measurement": "protein production", "value": "failed"}]}
{"sequence": "MGLIARLRRWYHLWVWRLRYWWYDTPSGVCAQHWAQGLGVLVFIVQLVRVWVAAALPAPHGAPAQAVYWWVWQLAIAVVAAYVSAALRPKPESVKPQQAQVPTVQDGQAVKHHFGTVWVGDEFILAWKMQGAIPIKTKGAGC", "values": [{"measurement": "protein production", "value": "failed"}]}
{"sequence": "MGLKGYSVGEGGGEIVEVQGGHIIRATGRKDRHSKVFTSKGPRDRRVRLSAHTAIQFYDVQDRLGYDRPSKAVDWLIKKAKTAIDKLELGETTTTTTRQEPVNTKPESPTLVFQRENNDQTQFVAANLDPEDAMKTFFPATTTTNGGGGTNINFQNYPHQDDNNMVSRTTTPPPNLSQDLGLSLHPFQGNNNTVVVPETNNFTTTHFDTFGRISGWNHHDLTMTSSSSSEHQQQEQEERSNGGFMVNHHPHHHHHQPSMMTLLNSQQQQVFLGGQQQQQQRGTLQSSLFPHSFRSWDHHQTTSDHHHHQNQASSMFASSSQYGSHGMMMMQGLSFPNTTRLLHGEEATQPNSSSSPPNSHL", "values": [{"measurement": "protein production", "value": "failed"}]}
{"sequence": "MGLKPSEVIELWPVKIFFIILSVTLFYNFALANGALEKLASHLLYKCRKFPQFLPLAIFFAATIIAGLGAGFYTVLAFMAPITLLLCKKTNMNMIIGGMAANYGALAGANFMTSQSGIIFRSLMENTGISSQTAFSYSSGIFVLTLIIPIAVLGIYTLWNRKSNSIVIEDQKPEPFDKKQKQSIFLIILMMSIVLVFPILHLVFPDVKTISFLNSKIDIAFLAITFSLISLLMKLADEKKVIALVPWRTLIMICGVGMLIALGVKLGIITTLSEWLANNVPVWVIPVLLCLISAIMSVFSSTLGVVAPTLFPIVPALALTSGLNPLVLFICIVVGAQSTAISPFSSGGSLIMASAPADIDKTKFFNQLLFKAIPVGVIAALIAIFALKFVI", "values": [{"measurement": "protein production", "value": "failed"}]}
{"sequence": "MGLKQTLKEIYYIVADKRLLYFSLSLGISTFAYSLLTYYFPIIMTNLDITTFTIGIIYSIISFLYVVFNIPLGAIVDKIGSKNAVTLSALMAVPLFLLMGTLNPLLFIISLVIFESVIRIVNSLGAHRFMLNYTNAGKAFGVFSLITSILAAIGIMLGGYLLQHSVSTLLFTIIAVLFGISGIIRFLELPKDENKVEVKRSLRLGFKYLKEDKKLLLYLLVSILSSGLSLETYYVTIYFVKDLLLPLTFVGVLYSSYALIMAFLPLLFSVILSKRSNFKNLSILIFSNSVIFFLVPLFTNVYILFLLFYAWTVIVAMESIVDYNVAQSVTKPEIRGTQVALISTFVRIFSVFYNAIVGLLFQITPLYSFYFTGFLGILAIFTIKFAEFIGVLK", "values": [{"measurement": "protein production", "value": "failed"}]}
{"sequence": "MGLLVILNIVMRIPSIPHEKGYDSFFIHSLANSVANFGVAQWWINWMSVFGLYPYSYASAVPFTLSGMSQLTGIRMEIVILLFCVLLGLFSIFASYSLATVLYDNFLHRFLFAVIFSSSAGTLNLTTWEITTRAQILVFFPFLLYLLFQIIKFKTKFVMLFIVTALLLLATHHFVYMGLFYSGLIFIVALIYKLNRNQPFQIQKTQLRNINLNYMYISSVFFLIILIFLYGSKWGLITSGSRYAWIIDILMITGRNVGLTLLLSIGALIYYIFKKDKLLDEWAILICLIPTLIFSFNQTYGYLTTYLFVTLLGSAGLFNVIKNQKQNRKVVAATVVILIILNITFSTFFVHYRLGIGGGNSEWYMSEETYNTGEWIKENISWDKKAVSNSMQGNRLFASYGGQPVLYRDDISNYMNGFVTLNESKIEKKSPFSKSFYLDNPYVLKSGTTTSGLYSWISQYPITSENSQNFINGNNISYFYDDSLNYNRLFGSLPQSKNSIYNSGRMRIWEN", "values": [{"measurement": "protein production", "value": "failed"}]}
{"sequence": "MGLNKEAVKIGFAYVGIVVGAGFSTGQEVMQFFSPYGLWSYIGVILSGLILGFIGRQVAKIGTAFDAQNHESTLDYLFGNKFSKIVDYLLIFFLFGISVTMLAGAGSTFEESFGVPTWLGALIMVIVIYITLLMDFNKIVRALGVVTPFLIILVVIIAAYYLFNGSISFGEVNDAVPDASLVKGILYGINYGGLAFAVGFSTIVAIGGDASRRRVSGAGALFGGIVYTILLALINFALQSEFTKIEDASIPMLTLANDIHPWIGLVLSIIMLAVMYNTILGLMYSFAARFTEPYSKKYHIFIVVMVIVAFALSFVGFAGLINFLYPIMGVVGLVVVIGVLVKYYSRKRQNKKFIA", "values": [{"measurement": "protein production", "value": "failed"}]}
{"sequence": "MGLNNARGLSFGLDGALYVTEAGTGGNGACIPSVTGQGGSLCYGTSSTVLKIENGVTSPVLTGLPSIALADGTGAGGARDIQFDTTGKPYILMGYGANPTFRNNLGNIDLGKIIAPDFQTNSWTSIADLANYELVNNPDGGDINSNPLGFFIDGNNLIAVDAGANNLLSVQTNGTNLQTLSVFPQEILTNPVFPPSGTPSTEPGQVPTPTAPPPPQLPIQVVPSSVVRGPDGAYYVSQFTGFPFPEGGAKIYRVGTDGETTIYADGFTQLTDLEFDSAGNLYALQYANQSAWKGNFDGSLIKIAADGTRTTILSGNGLESPNALAIAPNGEIYITNRSDRPGLGQIIRVENSQAVPLEHHHHHH", "values": [{"measurement": "protein production", "value": "failed"}]}
{"sequence": "MGLPAHHIDAFLDRLRTAHYSEVSLRKKRRVLCAFSGWMKHRNIDLIDLDESVTARFMKRMIDASRDRVQRARPTLRQFLAYLRAEAIVCSPTLGSQSAIAHTYRRYLDYLRQDRGLAKNSLLVYGPFIRDFLDSHSAGDGSLLPDAFDAVTIRNHLLARSKGRSAEYTRLMAVALRSFCHFLFLRGDTARDLAGSVPSVRKWRQSTVPTFLTPEQQEALIASADRSTPTGLRDYAILLLLARLGLRAGEIIEIELDDIHWRSGELVVHGKGQMVEHVPLSSEVGAAIATYLRDGRGASASRRVFLRRLAPRVGLAGPAAIGKIVCQAFARVGFRPACRGAAHLFRHGLATTMIRHGASMAEIAEVLRHRSPDSTAIYAKVAFEDLRGVARSWPTAGGAILEHHHHHH", "values": [{"measurement": "protein production", "value": "not failed"}]}
{"sequence": "MGLPNLSRFREKCCYCYRSIGDGISVCDCGFSFCEKHRGIHLGKSGCRIVFDIKEVGSDLGIEIKNAMLGEEEVEELRRRMEILIKPGDEDERVLSRDEEVRCVHGCPEGPSSIEMGNIGGLKCNLCDVKTRLWVCFSCGYVGCGRMQYGAEGNGHAKSHYEETQHNVFVLVPSLLKEDCEIFCYLCDSNIRSRYNSAENSVTIDFGGADGKTEERSVRKVMSCRGIAEPEFLEKKRAPESKGESVPSPYVGIINSGNTCYISSVIHMVGYAVSKEEFDLEQHFEICYMKNPLECFFCQLMRVLSKMKETKDNEGVNRISILDLIMLIWRDMPMFGKFAQQDAHEFLLFLLEKIREGERSYLIPPITSLFEFEVGRRVSCSGCMDDSTSYESMLMICTFLKGNIRKSVEMFFLPDEWSCECGGKKKVSRFITTLPKYLIIQVGRYSYNNYKVEKIKDKIEMRSIKLGSFMSKDEADRSLVRKLVDSGYPEEDAAKALGIFWNDESKARSLLENHAMMDMRTDSKYRVVGCINHSGDNIKAGHYTWWVYDNGKCFKIDDTTVLNSNVEVLEDGYIFLFK", "values": [{"measurement": "protein production", "value": "failed"}]}
{"sequence": "MGLRALSASVNAFECEKQHGDPKSMRINSVPGGRPPRDGRPSRAGALFGCSSAEALYFGSECRPGPSARRFGDNRAHSSLTYWCGMNTFDFGFDDSEDSPHEDPLEDLVAAYENDPSAYFDSGDLEEIASFYFEEGEMETALEVIDRLIELHPYTSDAWMRRGILLNNLGRPEEALEAYEQALDVNPTDTETLINLGITLDSLGRVDEALEAYDEALSINPLHGEALFNLGVTLERDEQLEAAVEAFQRCADVYPEHPEVWYELGYCYDRLGEDEKSVEAYDNHLDIDPYSKDAWYNRGIVLNRLGRFGEAVESYDMALAIHDEFASAYYNRGNAEANQGDLEAAVESYERVLELEGPDAATYYNLALAYEEQGDLRAARTYYEKTLDLKSNYPEAWYGLGCCFDTDERPEEALECFRYAVNLDANVPKFWTARADCAYKVGKLDEALESYQHAVRLDESNEHAWTGYAETLLEKEQPEEALEAYRQALELDPKSANTYFRQAKALLALGRADESIRALKTAFRLDPAKKEEFQKAYPTLYDNDRVRRLLDLDS", "values": [{"measurement": "protein production", "value": "failed"}]}
{"sequence": "MGLRMSESAKPYFAMVCLQFGYAGMNLVTKTVLDRGMSHYVLVAYRNAFATAAIAPFALLSERKVRSKMTFPIFMRIFLLALLGPVIDQNLYYIGLKLTSPTFSSAVSNIVPAITIILATLFRMEKVEMRKVRCLVKVMGTLVTVVGSILMIFYKGPFINFFRSHLTAASSPPTADYLKAAVFLLLASLSWASFFVLQAATLKKYSAHLSMSTMVCFMGTLQSLALAFVMEHNPSALNIGFDMNLLASAYAGIMSSSIAYYVQGLMMQRKGPVFVTAFNPLIVVIVSIMSFFVLGQGIYLGGYVNNNRVIGVVVLMVGVYAVLWGKHVDDDGEETRHEDNVVAVKCCSGNNGLTIMPKIDEADEEDVETGKATSEKESSVPEVVVVVFCSENVHSVSRPN", "values": [{"measurement": "protein production", "value": "failed"}]}
{"sequence": "MGLSAVAVFAISGALDAARQKMDILGFMLIGTATGLGGGTLRDLLLGNVPVFWIREPIWIIVCLVSTAITYFIAPKLASITRALIWMDAVGIALFAVVGTEIALEFGTSPLIAICMGVMTASFGGIARDVLSGSNLTLMNEELYITTTVAGSVMYLWLNTLSLPANYDLIGGFFIAFILRALAIRFHIKLPNHYRKD", "values": [{"measurement": "protein production", "value": "failed"}]}
{"sequence": "MGLTDIFLNLLLFVYPAVFIIYQIILYEISARKQINQEALKYSNLPVLSIIVPIKNEEISVIQGLLDNLSNLIWDKKKLEIIIVSDDNEDYFTKIINTVKVPKDLTVYFYRREKKLGYKSGALQYGFEKATGDLILTIDVDSRLPPNALINAYEKMQSNTCDAIVFQWNGYSSNQYSTLAKGMVVSTLFASKALFEGKEKLKLKIYPVGSGTMFSREALRVVNGWDYRLVQDDLEIGTRLIYNGKNVCASGIPIYVEVPDNFYSFYVQQTRWAMGSAEVLRNRLKYIIKSKISFTQRMDLIIYLLQYTPVIVTFFISTLLSLMLPFRIGHDPLNSPALLFWLVSLGLYASLLLSLALKLGLNLKDSLMGIGRLTAFTVSISPFIVFNFFKGLLKSGNTYVITPKGTVKKTNKLLRIIAIIGVFGLLYLLSSILYIYEGYYVTGIWLLYYSSAYLYTMLLYYKEL", "values": [{"measurement": "protein production", "value": "failed"}]}
{"sequence": "MGLTSHKYKYVSIYFLALLFLGIAVIESLHISHTRDLQEGLRQQAKEDLSIVRFQLEAEILGDIYTVKGLTTLLTLDPDLNIYQWEPLSAAVIRNSDHLRSLGIAPNDVVAFSYPLPQTNALLGLDYRTVPQQWQSIKKAREIKQTFVSGPVDLVQGGRALVIREPIFYDPPKDTRYWGVLSVVMDWDSLLSATSIYSFGEHFQVAIRGLDSRGSEGDVFFGEPRVFEHAFAQENVYFPYGSWRIAVAEKQDLLQQLSWYTRNAVRLLGYSVLLVLMAGFGVIMRLYQVAEERALHDPLTHLPNRRYFIYTIEHYFENAKRSHSEGNFALLNIDIDRFKSINDSHGHSAGDKVLVACAERIKSSLRVSDLVARIGGDEFLVLIPRIHREQDVLKVSDNILKRISETPIVYDDKLIHVRVSIGYALYDQSFATPDEMFKLADERMYTAKRRQNPLYRF", "values": [{"measurement": "protein production", "value": "failed"}]}
